For this assay, the target named is human glucose‐regulated protein 78 (hGRP78), full-length (human, UniProt P11021 19-654). The experiment in a line: SPR. For orientation: SPR reads the build-up and loss of mass on a sensor chip optically.
Chain of human glucose‐regulated protein 78 (hGRP78), full-length (P11021 19-654): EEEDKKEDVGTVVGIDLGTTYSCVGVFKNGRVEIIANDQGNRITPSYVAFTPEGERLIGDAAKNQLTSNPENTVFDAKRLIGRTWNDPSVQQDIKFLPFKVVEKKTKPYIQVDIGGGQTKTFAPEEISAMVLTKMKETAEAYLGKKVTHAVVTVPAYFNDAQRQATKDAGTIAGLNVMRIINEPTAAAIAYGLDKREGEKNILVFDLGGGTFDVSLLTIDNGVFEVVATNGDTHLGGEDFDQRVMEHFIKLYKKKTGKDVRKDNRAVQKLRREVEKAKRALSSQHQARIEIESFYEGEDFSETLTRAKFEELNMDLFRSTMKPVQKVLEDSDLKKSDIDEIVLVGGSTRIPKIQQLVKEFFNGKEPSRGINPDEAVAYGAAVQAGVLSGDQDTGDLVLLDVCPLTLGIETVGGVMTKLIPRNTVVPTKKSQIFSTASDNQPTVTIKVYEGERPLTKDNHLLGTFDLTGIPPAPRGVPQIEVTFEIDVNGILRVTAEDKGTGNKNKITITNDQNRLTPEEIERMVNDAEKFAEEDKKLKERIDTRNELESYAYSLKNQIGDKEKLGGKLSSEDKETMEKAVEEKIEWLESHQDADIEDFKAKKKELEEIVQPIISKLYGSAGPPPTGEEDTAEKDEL

B1: Nb NBD1 (VHH)
VHH: AVQLVESGGGSVQAGGSLTLSCAASINTGNPALVGWYRQAPGKQREMVAMISISGNTNYAPSVKGRFTISRDNANKTIFLQMNSLTPEDTAVYYCKKLPFGSWGQGTQVTVSS
With B1, the koff is 0.000575 s⁻¹.

A word on the koff: it is the first-order rate constant of dissociation. A high value points to a short-lived complex.
